{
  "source": "paper PMC11567960",
  "key": {"[1]": {"target": "cynomolgus monkey CD47 recombinant protein (cynomolgus monkey)", "test": "ELISA"}, "[2]": {"target": "human CD47 recombinant protein (human) (UniProt Q08722)", "sequence (Q08722 19-323)": "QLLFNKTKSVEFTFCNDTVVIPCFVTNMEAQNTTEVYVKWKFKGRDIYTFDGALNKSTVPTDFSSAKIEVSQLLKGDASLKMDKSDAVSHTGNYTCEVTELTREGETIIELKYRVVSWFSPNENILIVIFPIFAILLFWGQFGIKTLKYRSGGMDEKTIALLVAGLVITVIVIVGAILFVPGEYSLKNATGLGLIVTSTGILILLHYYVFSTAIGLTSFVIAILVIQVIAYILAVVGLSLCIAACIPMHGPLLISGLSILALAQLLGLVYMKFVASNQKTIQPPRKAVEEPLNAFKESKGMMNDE", "test": "ELISA"}},
  "note": "pEC50: −log10 of the molar value.",
  "data": [
    {"substance": "HX009 (bispecific antibody)", "values": [
      {"measurement": "pEC50", "setting": "[1]", "result": 8.99},
      {"measurement": "pEC50", "setting": "[2]", "result": 9.23}
    ]}
  ]
}
